Holding throughout (test): split reporter
Test [1] has as its target NRT2.1 S501A, rBiFC fusion (Arabidopsis thaliana, UniProt O82811 1-530, S501A).
Test [2] addresses NRT2.1 wild type, rBiFC fusion (Arabidopsis thaliana, UniProt O82811 1-530).
Test [3] deals with NRT2.1 S501D, rBiFC fusion (Arabidopsis thaliana, UniProt O82811 1-530, S501D).
NRT2.1 S501D, rBiFC fusion, sequence (O82811 whole entry S501D, the tested form may be a part): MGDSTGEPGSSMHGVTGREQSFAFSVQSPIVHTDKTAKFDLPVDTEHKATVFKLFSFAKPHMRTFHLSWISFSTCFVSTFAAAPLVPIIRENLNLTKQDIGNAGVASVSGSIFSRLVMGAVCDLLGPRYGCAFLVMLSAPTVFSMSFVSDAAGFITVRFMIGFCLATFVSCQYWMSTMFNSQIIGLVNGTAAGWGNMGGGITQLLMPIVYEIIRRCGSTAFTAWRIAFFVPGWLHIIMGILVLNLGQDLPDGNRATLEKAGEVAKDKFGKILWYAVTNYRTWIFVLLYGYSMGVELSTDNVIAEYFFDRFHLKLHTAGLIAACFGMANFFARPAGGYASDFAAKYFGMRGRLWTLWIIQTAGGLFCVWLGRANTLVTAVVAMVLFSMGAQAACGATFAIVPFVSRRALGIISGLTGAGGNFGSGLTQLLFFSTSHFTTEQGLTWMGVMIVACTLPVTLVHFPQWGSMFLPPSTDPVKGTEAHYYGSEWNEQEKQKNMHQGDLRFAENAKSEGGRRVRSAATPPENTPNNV

NRT2.1 S501A, rBiFC fusion, sequence (O82811 whole entry S501A, the tested form may be a part): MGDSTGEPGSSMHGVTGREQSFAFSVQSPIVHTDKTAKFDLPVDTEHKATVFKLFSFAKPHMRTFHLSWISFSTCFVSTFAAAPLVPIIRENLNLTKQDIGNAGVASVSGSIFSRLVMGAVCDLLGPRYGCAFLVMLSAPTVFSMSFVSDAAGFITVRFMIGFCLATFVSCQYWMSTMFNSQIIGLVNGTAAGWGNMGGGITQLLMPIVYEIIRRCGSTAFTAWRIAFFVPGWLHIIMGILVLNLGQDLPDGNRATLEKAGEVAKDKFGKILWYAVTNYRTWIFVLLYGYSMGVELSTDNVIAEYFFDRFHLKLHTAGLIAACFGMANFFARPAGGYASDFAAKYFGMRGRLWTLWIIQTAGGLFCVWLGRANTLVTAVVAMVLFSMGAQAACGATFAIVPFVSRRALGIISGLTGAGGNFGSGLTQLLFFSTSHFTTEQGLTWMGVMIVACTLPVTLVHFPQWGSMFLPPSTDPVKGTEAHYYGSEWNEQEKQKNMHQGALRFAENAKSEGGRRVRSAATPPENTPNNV
NRT2.1 wild type, rBiFC fusion, sequence (O82811 whole entry, the tested form may be a part): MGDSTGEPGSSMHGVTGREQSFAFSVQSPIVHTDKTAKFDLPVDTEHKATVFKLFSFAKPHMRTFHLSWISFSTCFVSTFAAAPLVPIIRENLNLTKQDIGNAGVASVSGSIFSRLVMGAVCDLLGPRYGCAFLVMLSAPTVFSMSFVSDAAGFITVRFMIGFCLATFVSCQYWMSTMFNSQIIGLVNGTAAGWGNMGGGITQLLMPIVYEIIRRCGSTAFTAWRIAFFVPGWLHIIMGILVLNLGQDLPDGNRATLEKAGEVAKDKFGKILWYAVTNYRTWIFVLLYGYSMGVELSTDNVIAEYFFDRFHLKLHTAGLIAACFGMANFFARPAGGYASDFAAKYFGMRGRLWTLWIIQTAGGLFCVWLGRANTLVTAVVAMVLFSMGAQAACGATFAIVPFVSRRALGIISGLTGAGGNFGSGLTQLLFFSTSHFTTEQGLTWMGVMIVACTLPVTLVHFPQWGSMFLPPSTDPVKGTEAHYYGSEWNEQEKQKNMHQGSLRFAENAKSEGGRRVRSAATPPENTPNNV

B1: NAR2.1, rBiFC fusion (natural protein, Arabidopsis thaliana, UniProt Q9FGS5 23-210, looked up)
chain: AEKVRLFKELDKGALDVTTKPSREGPGVVLDAGKDTLNITWTLSSIGSKREAEFKIIKVKLCYAPPSQVDRPWRKTHDELFKDKTCPHKIIAKPYDKTLQSTTWTLERDIPTGTYFVRAYAVDAIGHEVAYGQSTDDAKKTNLFSVQAISGRHASLDIASICFSVFSVVALVVFFVNEKRKAKIEQSK
As for B1, the “YFP fluorescence as percent of RFP fluorescence (rBiFC)” value in test [1] is ~50 % of RFP fluorescence; in test [2], ~40 % of RFP fluorescence; in test [3], ~50 % of RFP fluorescence.
